Results: US20260242419A1, “A CYCLIC PEPTIDE FOR TRAPPING INTERLEUKIN-1 BETA” (Merck Sharp & Dohme LLC, priority 2023, published 2026)
Starred links: 1 amine or outer side, 2 acyl side, 3 side chain; linkers in the order of their positions; H or OH if unused. Non-standard residues stand in square brackets, D forms with d. PyrimAla4AcPip = (2S)-3-[2-(4-acetylpiperazin-1-yl)pyrimidin-5-yl]-2-amino-propanoic acid, CC(=O)N1CCN(c2ncc(C[C@H](N[*:1])C(=O)[*:2])cn2)CC1; 3AzaPhe4AcPip = (2S)-3-[6-(4-acetylpiperazin-1-yl)-3-pyridyl]-2-amino-propanoic acid, CC(=O)N1CCN(c2ccc(C[C@H](N[*:1])C(=O)[*:2])cn2)CC1; Phe(4-(5-CO2H-2-pyrimidyl)) = N[C@@H](Cc1ccc(-c2ncc(C(=O)O)cn2)cc1)C(=O)O; Phe(4-(4-Ac-piperazinyl)) = CC(=O)N1CCN(c2ccc(C[C@H](N)C(=O)O)cc2)CC1; dPro(4R-(4-pyridylmethyl)) = O=C(O)[C@H]1C[C@@H](Cc2ccncc2)CN1; Trp(βS-Me,4-F) = C[C@@H](c1c[nH]c2cccc(F)c12)[C@H](N)C(=O)O; Bip(4'-COOH) = N[C@@H](Cc1ccc(-c2ccc(C(=O)O)cc2)cc1)C(=O)O; dPro(4R-Bzl(4-F)) = O=C(O)[C@H]1C[C@@H](Cc2ccc(F)cc2)CN1; Ala(pyrimidin-5-yl) = N[C@@H](Cc1cncnc1)C(=O)O; Phe(4-COOH) = N[C@@H](Cc1ccc(C(=O)O)cc1)C(=O)O; Pro(cis-4-F) = O=C(O)[C@@H]1C[C@H](F)CN1; 2Pal = N[C@@H](Cc1ccccn1)C(=O)O; 4Pal = N[C@@H](Cc1ccncc1)C(=O)O; Dab = NCC[C@H](N)C(=O)O; Aib = CC(C)(N)C(=O)O

B1: SEQ ID NO: 38 (peptide)
peptide: cyclo([Phe(4-(5-CO2H-2-pyrimidyl))][4Pal][Phe(4-COOH)]G[Pro(cis-4-F)][Trp(βS-Me,4-F)][Aib]EW[Aib][Ala(pyrimidin-5-yl)]Q[Dab]G[dPro(4R-Bzl(4-F))])
SMILES: C[C@@H](c1c[nH]c2cccc(F)c12)[C@@H]1NC(=O)[C@@H]2C[C@H](F)CN2C(=O)CNC(=O)[C@H](Cc2ccc(C(=O)O)cc2)NC(=O)[C@H](Cc2ccncc2)NC(=O)[C@H](Cc2ccc(-c3ncc(C(=O)O)cn3)cc2)NC(=O)[C@H]2C[C@@H](Cc3ccc(F)cc3)CN2C(=O)CNC(=O)[C@H](CCN)NC(=O)[C@H](CCC(N)=O)NC(=O)[C@H](Cc2cncnc2)NC(=O)C(C)(C)NC(=O)[C@H](Cc2c[nH]c3ccccc23)NC(=O)[C@H](CCC(=O)O)NC(=O)C(C)(C)NC1=O
B2: SEQ ID NO: 37 (peptide)
peptide: cyclo([Phe(4-(4-Ac-piperazinyl))][4Pal][Phe(4-COOH)]G[Pro(cis-4-F)][Trp(βS-Me,4-F)][Aib]EW[Aib][Ala(pyrimidin-5-yl)]Q[Dab]G[dPro(4R-Bzl(4-F))])
SMILES: CC(=O)N1CCN(c2ccc(C[C@@H]3NC(=O)[C@H]4C[C@@H](Cc5ccc(F)cc5)CN4C(=O)CNC(=O)[C@H](CCN)NC(=O)[C@H](CCC(N)=O)NC(=O)[C@H](Cc4cncnc4)NC(=O)C(C)(C)NC(=O)[C@H](Cc4c[nH]c5ccccc45)NC(=O)[C@H](CCC(=O)O)NC(=O)C(C)(C)NC(=O)[C@H]([C@@H](C)c4c[nH]c5cccc(F)c45)NC(=O)[C@@H]4C[C@H](F)CN4C(=O)CNC(=O)[C@H](Cc4ccc(C(=O)O)cc4)NC(=O)[C@H](Cc4ccncc4)NC3=O)cc2)CC1
B3: SEQ ID NO: 4 (peptide)
peptide: cyclo([Bip(4'-COOH)][4Pal][Phe(4-COOH)]G[Pro(cis-4-F)][Trp(βS-Me,4-F)][Aib]EW[Aib][Ala(pyrimidin-5-yl)]Q[Dab]G[dPro(4R-Bzl(4-F))])
SMILES: C[C@@H](c1c[nH]c2cccc(F)c12)[C@@H]1NC(=O)[C@@H]2C[C@H](F)CN2C(=O)CNC(=O)[C@H](Cc2ccc(C(=O)O)cc2)NC(=O)[C@H](Cc2ccncc2)NC(=O)[C@H](Cc2ccc(-c3ccc(C(=O)O)cc3)cc2)NC(=O)[C@H]2C[C@@H](Cc3ccc(F)cc3)CN2C(=O)CNC(=O)[C@H](CCN)NC(=O)[C@H](CCC(N)=O)NC(=O)[C@H](Cc2cncnc2)NC(=O)C(C)(C)NC(=O)[C@H](Cc2c[nH]c3ccccc23)NC(=O)[C@H](CCC(=O)O)NC(=O)C(C)(C)NC1=O
B4: SEQ ID NO: 35 (peptide)
peptide: cyclo([Bip(4'-COOH)][4Pal][Phe(4-COOH)]G[Pro(cis-4-F)][Trp(βS-Me,4-F)][Aib]EW[Aib]FQRG[dPro(4R-Bzl(4-F))])
SMILES: C[C@@H](c1c[nH]c2cccc(F)c12)[C@@H]1NC(=O)[C@@H]2C[C@H](F)CN2C(=O)CNC(=O)[C@H](Cc2ccc(C(=O)O)cc2)NC(=O)[C@H](Cc2ccncc2)NC(=O)[C@H](Cc2ccc(-c3ccc(C(=O)O)cc3)cc2)NC(=O)[C@H]2C[C@@H](Cc3ccc(F)cc3)CN2C(=O)CNC(=O)[C@H](CCCNC(=N)N)NC(=O)[C@H](CCC(N)=O)NC(=O)[C@H](Cc2ccccc2)NC(=O)C(C)(C)NC(=O)[C@H](Cc2c[nH]c3ccccc23)NC(=O)[C@H](CCC(=O)O)NC(=O)C(C)(C)NC1=O
B5: SEQ ID NO: 36 (peptide)
peptide: cyclo([Bip(4'-COOH)][4Pal][Phe(4-COOH)]G[Pro(cis-4-F)][Trp(βS-Me,4-F)][Aib]EW[Aib][2Pal]QSG[dPro(4R-Bzl(4-F))])
SMILES: C[C@@H](c1c[nH]c2cccc(F)c12)[C@@H]1NC(=O)[C@@H]2C[C@H](F)CN2C(=O)CNC(=O)[C@H](Cc2ccc(C(=O)O)cc2)NC(=O)[C@H](Cc2ccncc2)NC(=O)[C@H](Cc2ccc(-c3ccc(C(=O)O)cc3)cc2)NC(=O)[C@H]2C[C@@H](Cc3ccc(F)cc3)CN2C(=O)CNC(=O)[C@H](CO)NC(=O)[C@H](CCC(N)=O)NC(=O)[C@H](Cc2ccccn2)NC(=O)C(C)(C)NC(=O)[C@H](Cc2c[nH]c3ccccc23)NC(=O)[C@H](CCC(=O)O)NC(=O)C(C)(C)NC1=O
B6: SEQ ID NO: 39 (peptide)
peptide: cyclo([3AzaPhe4AcPip][4Pal][Phe(4-COOH)]G[Pro(cis-4-F)][Trp(βS-Me,4-F)][Aib]EW[Aib][Ala(pyrimidin-5-yl)]Q[Dab]G[dPro(4R-Bzl(4-F))])
SMILES: CC(=O)N1CCN(c2ccc(C[C@@H]3NC(=O)[C@H]4C[C@@H](Cc5ccc(F)cc5)CN4C(=O)CNC(=O)[C@H](CCN)NC(=O)[C@H](CCC(N)=O)NC(=O)[C@H](Cc4cncnc4)NC(=O)C(C)(C)NC(=O)[C@H](Cc4c[nH]c5ccccc45)NC(=O)[C@H](CCC(=O)O)NC(=O)C(C)(C)NC(=O)[C@H]([C@@H](C)c4c[nH]c5cccc(F)c45)NC(=O)[C@@H]4C[C@H](F)CN4C(=O)CNC(=O)[C@H](Cc4ccc(C(=O)O)cc4)NC(=O)[C@H](Cc4ccncc4)NC3=O)cn2)CC1
B7: SEQ ID NO: 41 (peptide)
peptide: cyclo([Bip(4'-COOH)][4Pal][Phe(4-COOH)]G[Pro(cis-4-F)][Trp(βS-Me,4-F)][Aib]AW[Aib][Ala(pyrimidin-5-yl)]Q[Dab]G[dPro(4R-(4-pyridylmethyl))])
SMILES: C[C@@H]1NC(=O)C(C)(C)NC(=O)[C@H]([C@@H](C)c2c[nH]c3cccc(F)c23)NC(=O)[C@@H]2C[C@H](F)CN2C(=O)CNC(=O)[C@H](Cc2ccc(C(=O)O)cc2)NC(=O)[C@H](Cc2ccncc2)NC(=O)[C@H](Cc2ccc(-c3ccc(C(=O)O)cc3)cc2)NC(=O)[C@H]2C[C@@H](Cc3ccncc3)CN2C(=O)CNC(=O)[C@H](CCN)NC(=O)[C@H](CCC(N)=O)NC(=O)[C@H](Cc2cncnc2)NC(=O)C(C)(C)NC(=O)[C@H](Cc2c[nH]c3ccccc23)NC1=O
B8: SEQ ID NO: 40 (peptide)
peptide: cyclo([PyrimAla4AcPip][4Pal][Phe(4-COOH)]G[Pro(cis-4-F)][Trp(βS-Me,4-F)][Aib]EW[Aib][Ala(pyrimidin-5-yl)]Q[Dab]G[dPro(4R-Bzl(4-F))])
SMILES: CC(=O)N1CCN(c2ncc(C[C@@H]3NC(=O)[C@H]4C[C@@H](Cc5ccc(F)cc5)CN4C(=O)CNC(=O)[C@H](CCN)NC(=O)[C@H](CCC(N)=O)NC(=O)[C@H](Cc4cncnc4)NC(=O)C(C)(C)NC(=O)[C@H](Cc4c[nH]c5ccccc45)NC(=O)[C@H](CCC(=O)O)NC(=O)C(C)(C)NC(=O)[C@H]([C@@H](C)c4c[nH]c5cccc(F)c45)NC(=O)[C@@H]4C[C@H](F)CN4C(=O)CNC(=O)[C@H](Cc4ccc(C(=O)O)cc4)NC(=O)[C@H](Cc4ccncc4)NC3=O)cn2)CC1

target: Recombinant human IL-1β (BioLegend 579404) (human, UniProt P01584 117-269); experiment: cell-based or functional assay

**Q.** How did the “MRC5 IC50” value turn out when B1 was run?
**A.** 41 pM

**Q.** How did the “MRC5 IC50” value turn out when B2 was run?
**A.** 33 pM

**Q.** B3 was tested. Which “MRC5 IC50” value did it give?
**A.** 31 pM

**Q.** B4 was tested. Which “MRC5 IC50” value did it give?
**A.** 49 pM

**Q.** B5 was tested. Which “MRC5 IC50” value did it give?
**A.** 54 pM

**Q.** Which “MRC5 IC50” value does the source give for B6 here?
**A.** 63 pM

**Q.** B7 was tested. Which “MRC5 IC50” value did it give?
**A.** 29 pM

**Q.** With B8 as the binder, how does the “MRC5 IC50” value read?
**A.** 48 pM

**Q.** With cyclo([Bip(4'-COOH)][4Pal][Phe(4-COOH)]G[Pro(cis-4-F)][Trp(βS-Me,4-F)][Aib]SW[Aib][Ala(pyrimidin-5-yl)]Q[Dab]G[dPro(4R-(4-pyridylmethyl))]) [SEQ ID NO: 42] as the binder, how does the “MRC5 IC50” value read?
**A.** 21 pM
